Source: paper PMC4136673
Ends that are not written are not given here. * marks the point of attachment. Pyruvoyl = CC(=O)C(=O)*

T1: His6-ElxO (Staphylococcus epidermidis 15X154) (UniProt I6ZQW6)
T1 sequence: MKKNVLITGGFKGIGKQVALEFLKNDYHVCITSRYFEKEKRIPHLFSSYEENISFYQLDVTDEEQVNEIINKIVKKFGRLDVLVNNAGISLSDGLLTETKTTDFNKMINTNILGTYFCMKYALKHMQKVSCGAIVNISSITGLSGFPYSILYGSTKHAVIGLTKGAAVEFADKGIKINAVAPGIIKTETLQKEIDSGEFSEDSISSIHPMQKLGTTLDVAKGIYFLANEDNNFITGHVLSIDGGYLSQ

B1: Pyr-AAIV (peptide)
peptide: Pyruvoyl-AAIV
B2: Pyr-AAIVK (peptide)
peptide: Pyruvoyl-AAIVK

These molecules were tested against T1, His6-ElxO (Staphylococcus epidermidis 15X154).

**Q.** With Pyr-A (peptide) as the molecule, how does the kcat/Km of reduction by His6-ElxO with NADPH (absorbance at 340 nm) read?
**A.** The kcat/Km of reduction by His6-ElxO with NADPH (absorbance at 340 nm) was < 0.03 M⁻¹ s⁻¹.

**Q.** How did the kcat/Km of reduction by His6-ElxO with NADPH (absorbance at 340 nm) turn out when Pyr-AA (peptide) was run?
**A.** The kcat/Km of reduction by His6-ElxO with NADPH (absorbance at 340 nm) was < 0.03 M⁻¹ s⁻¹.

**Q.** How did the kcat/Km of reduction by His6-ElxO with NADPH (absorbance at 340 nm) turn out when Pyr-AAI (peptide) was run?
**A.** Its kcat/Km of reduction by His6-ElxO with NADPH (absorbance at 340 nm) is 0.06 M⁻¹ s⁻¹.

**Q.** With Pyr-AAIVKBBIKAAKK (peptide) as the molecule, how does the kcat/Km of reduction by His6-ElxO with NADPH (absorbance at 340 nm) read?
**A.** Its kcat/Km of reduction by His6-ElxO with NADPH (absorbance at 340 nm) is 14.2 M⁻¹ s⁻¹.

**Q.** How did the kcat/Km of reduction by His6-ElxO with NADPH (absorbance at 340 nm) turn out when B1 was run?
**A.** The kcat/Km of reduction by His6-ElxO with NADPH (absorbance at 340 nm) was 1.13 M⁻¹ s⁻¹.

**Q.** For B2, which kcat/Km of reduction by His6-ElxO with NADPH (absorbance at 340 nm) is on record?
**A.** Its kcat/Km of reduction by His6-ElxO with NADPH (absorbance at 340 nm) is 2.43 M⁻¹ s⁻¹.
